How the values were obtained:
Assay type in all cases: cell-based, human
Caki-1 cells = assay: 3H-TdR proliferation assay, RCC lines; details: Caki-1, 3H-TdR incorporation, 96 hours
CD70^+ RCC lines = assay: 3H-TdR proliferation assay, panel of RCC lines; details: CD70^+ RCC lines tested
[1] = tested on: CD70^+ CD8^+/Vβ17^+ T cells; assay: In vitro deletion of M1 peptide-specific T cells (flow cytometry, viable counts)
Description: PBMCs from a normal HLA-A0201donor were stimulated with the M1 peptide for 5 days. 1F6 ADCs or control non-binding IgG (cIgG) ADCs were added to cells to a final concentration of 1 μg/ml. Total viable cell counts were conducted at 24, 48, and 76 hours post drug addition. Total numbers of CD8^+/Vβ17^+ for each culture condition are calculated (upper panel).
FIG. 19: Dose-response comparison of anti-CD70 ADCs on deletion of antigen-specific CD8^+/Vβ17^+ cells. PBMCs from a normal HLA-A0201donor were stimulated with the M1 peptide for 5 days. 1F6 ADCs or control non-binding IgG (cIgG) ADCs were given to cells to the specified final concentrations. The percentages of CD8^+/Vβ17^+ cells 4 days post ADC addition was determined by flow cytometry as in FIG. 17.
To examine CD70 expression on activated antigen-specific T cells, PBMCs from a normal donor expressing HLA-A0201 were stimulated with the M1 peptide. PBMCs were seeded at 2×10^6 cells/ml with 5 μg/ml of M1 peptide in AIMV medium supplemented with 5% human AB serum. IL-2 (Proleukin, Chiron) and IL-15 (R&D Systems, MN) were added to final concentrations of 20 IU/ml and 5 ng/ml, respectively, once every two days beginning on day 2 after culture initiation. The expansion of CD8^+/Vβ17^+ T cells and induction of CD70 on the CD8^+/Vβ17^+ was followed by three-color flow cytometry. Vβ17^+ T cells were identified by the anti-TCRVβ17 mAb clone E17.5F3 (Beckman Coulter, Miami, Fla.).
PBMCs from a normal donor expressing HLA-A0201 were stimulated with the M1 peptide as described in Example 11. On day 5, cells were harvested, washed, and re-seeded at 0.5-1×10^6 cells/ml (approximately 100,000 of CD8^+/Vβ17^+ T cells) in fresh AIMV medium supplemented with 5% human AB, 20 IU/ml of IL-2, and 5 ng/ml of IL-15. 1F6 or control non-binding IgG (cIgG) ADCs were added to some cultures to a final concentration of 1 μg/ml. Total viable cell counts were conducted 24, 48, and 76 hours after ADC addition. Two-color flow cytometry was conducted to determine the percentages of CD8^+/Vβ17^+ cells among the viable cells. The absolute number of CD8^+/Vβ17^+ T cells in each culture was then calculated. […] The effects of 1F6 ADCs on the CD8^+/Vβ17^− cells were also evaluated.
The potency of three 1F6 ADCs was then compared. HLA-A0201 PBMCs were stimulated with the M1 peptide and re-seeded as described for FIG. 18 with the various ADCs at the indicated concentrations (FIG. 19). The percent of CD8^+/Vβ17^+ T cells after a 96-hour incubation was determined.

B1: 1F6-vcAFP: anti-CD70 mAb 1F6 linked to auristatin phenylalanine phenylenediamine by the valine-citrulline (vc) dipeptide linker (conjugate)
VH: QIQLVQSGPEVKKPGETVKISCKASGYTFTNYGMNWVKQAPGKGLKWMGWINTYTGEPTYADAFKGRFAFSLETSASTAYLQINNLKNEDTATYFCARDYGDYGMDYWGQGTSVTVSS
VL: DIVLTQSPASLAVSLGQRATISCRASKSVSTSGYSFMHWYQQKPGQPPKLLIYLASNLESGVPARFSGSGSGTDFTLNIHPVEEEDAATYYCQHSREVPWTFGGGTKLEIKR
modifications: non-natural residues
notes: anti-CD70 mAb 1F6 linked to auristatin phenylalanine phenylenediamine by the valine-citrulline (vc) dipeptide linker
- concentration at which maximal proliferation inhibitory effects were achieved (Caki-1 cells): lower than 0.1 μg/ml
- IC50 values for proliferation inhibition (CD70^+ RCC lines): 2 to 247 ng/mL
- number of CD8^+/Vβ17^+ T cells ([1]; 1 μg/ml, 76 hours after ADC addition): Virtually no expansion
- CD8^+/Vβ17^+ cells, of the control untreated culture ([1]; 1 μg/ml, end of the experiment): < 40%
- inhibition of CD8^+/Vβ17^+ T cell expansion ([1]; 96-hour incubation): dose-dependent inhibition
